The target of this experiment is Recombinant hemagglutinin-tagged full-length CSB (human, UniProt Q03468 1-1493). Kind of experiment: pull-down; ΔN-SNM1A (500 ng) with or without HA-CSB (500 ng) and α-HA magnetic beads; 20 mM HEPES pH 7.9, 4 mM MgCl2, 0.05 mM ATP, 40 μg/ml BSA, 1 mM DTT, 4°C, 2 h; silver stain. To be noted: both partners purified.
Chain of Recombinant hemagglutinin-tagged full-length CSB (Q03468 whole entry): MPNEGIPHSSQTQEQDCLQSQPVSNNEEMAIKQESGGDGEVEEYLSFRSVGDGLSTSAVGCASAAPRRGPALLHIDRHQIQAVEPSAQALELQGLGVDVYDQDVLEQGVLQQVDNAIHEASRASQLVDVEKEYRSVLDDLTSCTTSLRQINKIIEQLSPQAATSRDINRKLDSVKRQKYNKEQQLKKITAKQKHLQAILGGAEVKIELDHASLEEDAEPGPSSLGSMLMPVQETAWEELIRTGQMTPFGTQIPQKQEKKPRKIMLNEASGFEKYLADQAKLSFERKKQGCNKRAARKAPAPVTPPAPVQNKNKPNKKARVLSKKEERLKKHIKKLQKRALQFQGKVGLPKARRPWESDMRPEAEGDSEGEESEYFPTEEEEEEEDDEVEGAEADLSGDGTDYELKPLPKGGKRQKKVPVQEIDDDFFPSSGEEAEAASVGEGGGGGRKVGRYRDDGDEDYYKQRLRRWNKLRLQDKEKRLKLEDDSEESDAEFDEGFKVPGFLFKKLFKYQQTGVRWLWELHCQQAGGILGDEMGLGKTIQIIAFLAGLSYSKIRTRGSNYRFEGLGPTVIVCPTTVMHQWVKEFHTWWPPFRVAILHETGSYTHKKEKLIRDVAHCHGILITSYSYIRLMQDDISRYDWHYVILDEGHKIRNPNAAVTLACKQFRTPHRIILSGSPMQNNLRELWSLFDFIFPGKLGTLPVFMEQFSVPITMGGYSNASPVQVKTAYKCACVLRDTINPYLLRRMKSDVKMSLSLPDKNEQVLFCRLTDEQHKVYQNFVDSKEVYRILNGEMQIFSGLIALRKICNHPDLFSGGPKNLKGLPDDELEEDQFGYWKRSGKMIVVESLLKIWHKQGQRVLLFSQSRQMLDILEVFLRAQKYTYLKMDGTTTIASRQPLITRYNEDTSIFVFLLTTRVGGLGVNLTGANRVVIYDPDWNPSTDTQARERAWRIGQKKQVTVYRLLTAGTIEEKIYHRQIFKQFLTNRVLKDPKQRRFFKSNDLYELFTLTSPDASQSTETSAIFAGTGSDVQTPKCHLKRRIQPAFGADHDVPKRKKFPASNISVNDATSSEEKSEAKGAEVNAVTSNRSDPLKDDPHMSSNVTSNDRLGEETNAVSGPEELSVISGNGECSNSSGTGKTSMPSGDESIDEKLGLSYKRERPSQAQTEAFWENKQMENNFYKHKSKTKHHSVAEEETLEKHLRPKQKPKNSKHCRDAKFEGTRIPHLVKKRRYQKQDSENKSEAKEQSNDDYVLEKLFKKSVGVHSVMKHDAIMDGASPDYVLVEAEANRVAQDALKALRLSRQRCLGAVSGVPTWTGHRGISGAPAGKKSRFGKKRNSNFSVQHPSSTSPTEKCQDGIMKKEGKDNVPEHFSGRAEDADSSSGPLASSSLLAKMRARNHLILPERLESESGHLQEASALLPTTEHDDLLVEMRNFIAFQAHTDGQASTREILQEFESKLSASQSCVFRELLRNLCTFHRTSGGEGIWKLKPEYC

B1: SNM1A nuclease fragment consisting of residues 608 to 1040 (domain or fragment, human, UniProt Q6PJP8 608-1040, looked up)
chain: SDLEFDASTLHESQLSVELSSERSQRQKKRCRKSNSLQEGACQKRSDHLINTESEAVNLSKVKVFTKSAHGGLQRGNKKIPESSNVGGSRKKTCPFYKKIPGTGFTVDAFQYGVVEGCTAYFLTHFHSDHYAGLSKHFTFPVYCSEITGNLLKNKLHVQEQYIHPLPLDTECIVNGVKVVLLDANHCPGAVMILFYLPNGTVILHTGDFRADPSMERSLLADQKVHMLYLDTTYCSPEYTFPSQQEVIRFAINTAFEAVTLNPHALVVCGTYSIGKEKVFLAIADVLGSKVGMSQEKYKTLQCLNIPEINSLITTDMCSSLVHLLPMMQINFKGLQSHLKKCGGKYNQILAFRPTGWTHSNKFTRIADVIPQTKGNISIYGIPYSEHSSYLEMKRFVQWLKPQKIIPTVNVGTWKSRSTMEKYFREWKLEAGY
Turning to B1, the binding result is reported as “binds”.
